# Laboratory results: the nanobody polyreactivity screen of Harvey et al. (2022)
# Assay: yeast display, Sf9 membrane polyspecificity reagent, FACS + sequencing; frameworks hold sequencing errors
# In short: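 After 36–48 hours of galactose induction, yeast (Saccharomyces cerevisiae BJ5465) displaying a synthetic nanobody library were stained at 4 °C for 1 hour with 10% biotinylated, detergent-solubilized Sf9 membrane reagent. Streptavidin microbeads enriched the stained cells before FACS sorting into low and high (top ~1%) gates on anti-HA and streptavidin fluorescence. Each clone's polyreactivity label reflects its gate of origin.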
row,Sequence,polyreactivity (PSR sort gate)
1,QVQLVESGGGLVQAGGSLRLSCAASGSIFPRYAMGWYRQAPGKERELVAAITNGGSTDYADSVKGRFTISRDNAKKTVYLLMNSLKPEDTAGYYCAADLAVGIYPEDGDYWGQGTKVTVSS,low polyreactivity
2,QVQLVESGGGLVQAGGSLRLSCAASGRIFPYCAMGWYRQAPGKEREFVAAITSSGGSTYYADSVKGRFTISRDNAKNTVYLQMNSLKREDTAVYFCFAVRHYALYAGRPYDYWGQGTEVTVSS,low polyreactivity
3,QVQLVESGGGLVQAGGSLRLSCAASGFTFRGNAMGWYRQAPVKERELVAAITSSDDSTYYADSVKGRFTISRDLSKNTVYLQMNSLKPEDTAVYYCAAVANGYWTYEYWGQGTQVTVSS,low polyreactivity
4,QVQLVESGGGLVQAGGSLRLSCAASGFIFLPYAKGWYRQAPGKERELVAAITRGGRTYYADSVKGRFTISRDNAKNTVYLQMNSLKPEDTAVYYCAATTYLVWGYNYWGQGTQVTVSS,low polyreactivity
5,QVQLVASGGGLVQAGGSLRLSCAASGGTLDYYVMGWYRQAPGKERELVAAISTNGGSTNYADSVKGRFTISRDNAKNTVYLQMNSLKPEDTAVYYCAATSDVYVFLEFDYWGQGTQVTVSS,low polyreactivity
6,QVQHVESGGGLVQAGGSLRLSCAASGLTFSTYDMGWYRQAPGKERDLVAAITYSGGSTYYADSVKGRFTISRDHAKNTVYLQMNSLKPEDTAVYYSATTWYFVASWYVAIYDYWGQGTQVTVST,low polyreactivity
7,QVQLEESGGGLVQAGGSLRLSCAASGRIHVYTMGWSRQAPGKERELVATITWSGTSTNYADSVKGRFTISRDNAKNTVYFQMNSLKPEDTAVYYCAADISGVLSVSNVRGFDYWGQGTQVTVSS,low polyreactivity
8,QVQLVESGGGLVQAGGSLRLSCADSGLTFIYYAMGWYRQAHGKERELVAAISSSGGRTYYADSVKGRFTISRDNAKNTVYLQMNSLKPEDTAVYYCATRYWTQSSSFDYWGQGTQVTVSS,high polyreactivity
9,QVQLVESGGGLVQAGGSLRLSCAASGSTFQYYAMGWSRQAPGKERELVAAISYGGSRTYYADSVKGRFTISRDNAKNTVYLQMNSLKPEDTAVYYCAKEKYRALAPYYYWGQGTQVTVSS,high polyreactivity
10,QVQLVESGGGLVQAGGSLRLSCAASGNTIKGYAMGLYRQAPGKERELVAAISWSGSSTYYADSVKGRFTISRDNAKYSVYLHKNSVKPEDTAVYYCNRKYLGRYASVYGYGYWGQGTQVTVSS,high polyreactivity
11,QVQLVESGGGLVQAGGSLRLSCAASGSIFGYYAMGWYRQAPGKERELVAAITRVSSTNYADSVKGRFTISRDNAKYTVYLHMNSLKPEDTAVYYCAARTLRYYQGNTWGDDYWGQGTQVTVSS,high polyreactivity
12,QVQLVESGGGLVQAGGSLRLSCAASGGIFVGYAMGWYRQAPGKERELVAAISSGGNTYYADSVKGRFTISRDNAKNTVYLQMNSLKPEDTAVYYCAAVRQYQGYRYDYWGQGTQVTVSS,high polyreactivity
13,QVQLVESGGGLVQAGGSLRFSCAASGSISSQYGMGWYRQEPGKVRELVATIRDGGPTNYADSVKGRFTISRDNAKYTVYLQMNSLKPEDTAVYSCAALYWYYYTWPLYDYWGQGTQVTVSS,low polyreactivity
14,QVQLVESGGGLVQAGGSLRLSCAPSGRIFPYYAMGRYRQAPGKERELVATITASSGSTYYADSVKGRFTISRDNAKNTVYLQMNSLKPEDTAVYYCAAGFVYRPGSYIRFDYWGQGTQVTVSS,high polyreactivity
15,QVQLEESGGGLVQAGGSLRLSCAASGIIFATYAMGWYRQAPGKDRELVAAISSGGRTYYADSVKGRFTISRDNAKNTVYLQMNSLKPEDTAVYYCAAKSGGRSSLYNYWGQGTQVNVSS,high polyreactivity
16,QVQLVESGGGLVQAGGSLRLSCAASGSTHGYAMGWYRQAPGKERELVAAISLNTGSTYYADSVKGRFTIARDNAKNTVYFQMNSLKPEYTAVYYCNADDYTYATYEYDYWGQGTLVTVSS,low polyreactivity
17,QVHLVESGGGLVQAGGSLRLSSAASGRIFKYYTMGWYRHAPGKERELVASITGTGGSTYYADSVKGRFTISRDNAKNTVYLQMNRLKPEDTAVYYCAARLSVLGGYRGRNAWRFDHWGQGTKVTVSS,high polyreactivity
18,QVQLVESGGGLVQAGGSLRLSCAASGSTFGYYAMGWYRQAPGKERELVAAIRYSGGTTYYADSVKGRFTISRDNAKNTVYLQMNSLKPEDTAVYYCAAVYTSGYYYWGQGTQVTVSS,high polyreactivity
19,QVQLVESGGGLVQAGGSLRLSCAASGGIFGWYAMGWYRQAPGKERELVAAITGGGSTYYADSVKGRFTISRDNAKNTVYLQMNSLKPEDTAVYYCNADYHTEEDYWGHGTQVTVSS,low polyreactivity
20,QVQLVESGGGLVQAGGSLRLSCAASGSIFAKYAMGLYRQAPGKERELVAGITRGGSTYYADSVKGRFTISRDNAKNTVYLQMNSLKQEDTAVYYCAAKRHTSLYVYYYWGLGTQVTVSS,high polyreactivity
21,QVQLQESGGGRMQAGGSQRLSCAASGSISYYSDMGWYRQAPGKEREFVAGIGYGTTTNYADSVKGRFTTSRDNAKNTVYLQMISMKPEDTAVYYCAAYQGNGYEFYYWGQGTQVTVRS,low polyreactivity
22,QVQLVESGGGLVQAGGSLRLSCASSGYTFYAYAMGWYRQAPGKERELVAAISGSGGNTRYADSVKGRFTISRDNAKNTVYLQMNILKPEDTAVYYCAKRIIRSPFGAYGYWGQGTQVTVSS,high polyreactivity
23,QVQLVESGGGLVQAGVSLRLSCAASGINFTRYAMGWYRQAPGKERELVAAITRNGVSTYYADSVKGRFTISRDIAKNSVYLQMKSLKPEDTAVYYCNTFVLRRYAYCYWGQGTQVTVSS,high polyreactivity
24,QVQLVESGGGLVQAGGSLRLSCAASGSTFKRNAMGWYRQAPGKERELVAAISSSGGRTYYADSVKGRFTISRDNAKNTVYLQMNSLKPEDTAVYYCAAGIRTSAGYDYWGQGTQVTVSS,high polyreactivity
25,QVQLVESGGGLVQAGGSLRLSCAASGRTFDNNAMGWYRQAPGKEREFVAAITTGVGSTYADSVKGRFTISRDNAKNTVYLQMNSLKPEDTAVYYCAADSYWLFDAYDYWGQGTQVTVSS,low polyreactivity
26,QVQLVESGGGLVQAGGSLRLSCAASGSTLIRNVMGWYRQAPGKERELVAAINTRGTTTYYADSVKGRITISRDNAKNTVYLQMNSLKPEDTAVYYCAARTPHYSYGYWGQGTHVTVSS,high polyreactivity
27,QVQLVESGGGLVQAGGSLRLSCAASGRTFDYNAMGWYRQAPGKERELVAAISYSTGTTYYADSVKGRFTISRDNAKNTVYLQMNSLKPEDTAVYYCAAEIFYSEYGYWGQGTQVTVSS,low polyreactivity
28,QVQLVESGGGLLQAGGSLRVSCAASGRTFLRYAMGWSIKAPGKERELVAGIDSSGGNTYYADSVKGRFTISRDTAKKYVYLQINSLKPEDTAVYYCAPRRSCKYRGGYYWGQGTQVTVSS,high polyreactivity
29,QVQLVESGGGLVQAGGSLRLSCAASGITFDYYAMGWYRPAPGKERELVAAISGSGARTYYADSVKGRFTISRDTAKNTFYLQMNSLKPEDTAVYYCAAEYYTVPPGGIEDYWGQGTQVTVSS,high polyreactivity
30,QVQLEESGGGLVQAGGSLRLSCAASGRIFWWYGMGWYREAPGKERELVASITYSGVSTYYADSVKGRFTISRDNAKNTVYLQMNSLTPEDTAVYYCAADRSRYFSYKYDYWGQGTQVTVSS,high polyreactivity
